Experimental data published in US20130052130A1.

Assays:
TAG-72 = experiment: competition assay, single aliquots; antigen and competitor not stated
BSM = experiment: competition ELISA, BSM-coated plate; competitor is mCC49 at 0.033 ug/mL

CC49 Fab′-NEM
Relative Affinity Constant (Ka) (relative to Fab′-NEM defined as 1.0) (TAG-72): 1
I1/2 fold relative to F(ab′)2 (fold (× the I1/2 of F(ab′)2)) (BSM): 40

CC49 Fab′-dPEG12-Tris(dPEG12 acid)3
Relative Affinity Constant (Ka) (relative to Fab′-NEM defined as 1.0) (TAG-72): 0.3

CC49 Fab′-dPEG12-Tris(dPEG12-Tris(m-dPEG11)3)3
Relative Affinity Constant (Ka) (relative to Fab′-NEM defined as 1.0) (TAG-72): 0.4

CC49 Fab′-dPEG12-Tris(dPEG24 acid)3
Relative Affinity Constant (Ka) (relative to Fab′-NEM defined as 1.0) (TAG-72): 1
I1/2 fold relative to F(ab′)2 (fold (× the I1/2 of F(ab′)2)) (BSM): 40

CC49 Fab′-dPEG12-Tris(m-dPEG24)3
Relative Affinity Constant (Ka) (relative to Fab′-NEM defined as 1.0) (TAG-72): 0.3
